Laboratory results as given in publication PMC4534181.

Target: wild-type α1-antitrypsin (recombinant) (human) (UniProt P01009)
Experiment: native MS; 15 μM α1-antitrypsin incubated with TTAI at peptide:protein molar ratios 0.1:1 to 5:1 for 3 days at 37.5°C in phosphate buffer pH 7.4; exchanged into 200 mM ammonium acetate pH 8; nanoelectrospray, Synapt

UniProt P01009, sequence (P01009 25-418): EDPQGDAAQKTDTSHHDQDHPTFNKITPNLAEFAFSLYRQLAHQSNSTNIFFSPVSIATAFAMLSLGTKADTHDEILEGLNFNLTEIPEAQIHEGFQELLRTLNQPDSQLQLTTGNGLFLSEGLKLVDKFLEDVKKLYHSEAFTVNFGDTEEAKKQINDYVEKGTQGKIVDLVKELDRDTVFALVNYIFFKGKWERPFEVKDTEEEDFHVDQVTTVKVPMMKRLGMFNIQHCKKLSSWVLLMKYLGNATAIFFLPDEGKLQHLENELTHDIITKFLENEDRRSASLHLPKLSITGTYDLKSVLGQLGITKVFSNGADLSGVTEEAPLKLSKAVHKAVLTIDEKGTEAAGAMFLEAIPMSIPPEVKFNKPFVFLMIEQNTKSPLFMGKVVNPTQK

stoichiometry N: 2 copies
Binder: Ac-TTAI-NH2 [reactive loop analogue tetrapeptide Thr-Thr-Ala-Ile (TTAI)]
